In the nanobody polyreactivity screen of Harvey et al. (2022):

Assay: yeast display, Sf9 membrane polyspecificity reagent, FACS + sequencing; frameworks hold sequencing errors
Method in brief: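 Sorting gates, low and high (top ~1%), were placed on anti-HA fluorescence to track expression and on streptavidin fluorescence to track reagent binding. A clone's polyreactivity label is taken from the gate it came out of. The reagent was 10% biotinylated, detergent-solubilized Sf9 membrane, applied for 1 hour at 4 °C to galactose-induced yeast display cells.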

Row | Sequence | polyreactivity (PSR sort gate)
1 | QVQLVESGGGLVQAGGSLRLSCAASGRTFYGYAMGWYREAPGKERELVASISWSTGSTHYADSVKGRFTISRDNAKNTVYLQMNSLKPEDTAVYYCAAPFWRDSYVQIDYDYWGQGTQVTVSS | low polyreactivity
2 | QVQLVESGGGLVQAGGSLRLSCAASGRTFYGYAMGWYRQAPAKERELVAAITWSVGRTYYADSVKGRFTISRDNAKNTVYLQMNSLKPEDTAVYYCAAQRAGLFNYWGQGTQVTVSS | low polyreactivity
3 | QVQLVESGGGLVQAGGSLRLSCAASGRTFYGYAMGWYRQAPGKERELVAAITYSGGRTYYADSVKGRFTISRDNAKNTVYLQMNSLKPEDTAVYYCNTGYWYVSLGSYDYYGEYDYWGQGTQVTVSS | high polyreactivity
4 | QVQLVESGGGLVQAGGSLRLSCAASGRTFYGYAMGWYRQAPGKERELVASISRDGYTNYADSVKGRFTISRDNANNTVYLQMTSLKPEDTAVYYCAADFWYYRYPIYYYSYDYWGQGTQVTVSS | low polyreactivity
5 | QVQLVESGGGLVQAGGSLRLSCAASGRTFYHNAMGWYRQAPGKERELVAAITSGARTKYADSVKGRFTISRDNAKNTVYLQMNSLKPEDTAVYYCAAVYYFGKGKTFDYWGQGTQVTVSS | high polyreactivity
6 | QVQLVESGGGLVQAGGSLRLSCAASGRTFYIYAMGWYRPAPGKERELVAAITYGGGRTFYADSVKGRFTISRDNAKNTVYLQMNSLKPEDTAVYYCAATVRGKRSTYDYWGQGTQVTVSS | high polyreactivity
7 | QVQLVESGGGLVQAGGSLRLSCAASGRTFYIYAMGWYRQAPGKERELVAAISTTGGRTYYADSVKGRFTISRDNAKNTVYLQMNSLKPVDTAVYFCAAPARTRYDYWGQGTQVTVSS | high polyreactivity
8 | QVQLVESGGGLVQAGGSLRLSCAASGRTFYIYVMGWYRQAPGKERELVAGITWRGGITYYADSVKGRFTISRDNAKNNVYLQMNSLKPEDTAVYYCAVDDLGSEYDYWGQGTQVTVSS | low polyreactivity
9 | QVQLVESGGGLVQAGGSLRLSCAASGRTFYKNAMGWYRQAPGKERELVARISRGGSTNYADSVKGRFTISRDNAKNTVYLQMNSLKPEDTAVYYCAKEYGTHGKTYDYWGQGTQVTVSS | high polyreactivity
10 | QVQLVESGGGLVQAGGSLRLSCAASGRTFYKNAMGWYRQAPGKERELVATITSGGSTNYADSVKGRFTISRDNAKNTVYLQMNSLKPEDTAVYYCAAAKPVQFRIAQAHVGYWGQGTQVTVSS | low polyreactivity
11 | QVQLVESGGGLVQAGGSLRLSCAASGRTFYKNTMGWYIQAPGKERELVATISQRGGSTYYADSVKGRFTISRDNAKNTVYLQMNSLKPEDTAVYYCNARKYTQSIHYDYWGQGTQVTVSS | high polyreactivity
12 | QVQLVESGGGLVQAGGSLRLSCAASGRTFYKNTMGWYRQAPGKERELVAAIRWRGSSTYYADSVKGRFTISRDNAKNSVYLKMNSLKPEDTAVYYCAAPSSVRGKVISADYAYWGQGTQVTVSS | high polyreactivity
13 | QVQLVESGGGLVQAGGSLRLSCAASGRTFYKNTMGWYRQAPGKERELVATISQRRGSTYYADSVKGRFTISRDNAKNTVYLQMNSLKTEDTAVYYCNARKYTQSIHYDYWGQGTQVTVSS | high polyreactivity
14 | QVQLVESGGGLVQAGGSLRLSCAASGRTFYKYAKGWYRQAPGKERELVAAISWSGGSTYYADSVKGRFTISRDNAKNTVYLLMKSLKPEDTAVYYSNRASYPFVKPRYECWGQGTQVTVSS | high polyreactivity
15 | QVQLVESGGGLVQAGGSLRLSCAASGRTFYKYAMGWSRQAPGKERELVAAISSDGTTYYADSVKGRFTISRDNAKNTVYLQMNSLKPEDTAVYYCAADPPPPFLYVSVQEYDYWGQGTQVTVSS | low polyreactivity
16 | QVQLVESGGGLVQAGGSLRLSCAASGRTFYKYAMGWYIQAPGKERELVARISGRGGRTYYADSVKGRFTISRDNAKNTVYLQMNSLKPEDTEVYYCASDWVPINVKSLVVTYDYWGQGTQVTVSS | low polyreactivity
17 | QVQLVESGGGLVQAGGSLRLSCAASGRTFYLNAMGWYRQAPGKERELVAAIRFSGGSTYYADSVKGRFTISRDNAKNTVLLQMNSLKPEDTAVYYCNAGPYHSLYPTVSEYGYWGQGTQVTVSS | low polyreactivity
18 | QVQLVESGGGLVQAGGSLRLSCAASGRTFYLNTMGWYRQAPGKERELVAGITSSGTRTYYADSVKGRFTISRDNAKNTVYLQMNSLKPEDTAVYYSAKTWGGQIRPRYRYGSGYDYWGQGTQVTVSS | high polyreactivity
19 | QVQLVESGGGLVQAGGSLRLSCAASGRTFYLYAMGWYRQAPGKERELVAAINTNGARTYYADSVKGRFTISRDHAKNTVYLQMNSLIPEDTAVYYCNADAYRVIANWIYDYWGQGTQVTVSS | low polyreactivity
20 | QVQLVESGGGLVQAGGSLRLSCAASGRTFYLYGMGWYRQAPGKERELVAAITITDSTNYADSVKGRFTISRDNAKNTVYLQMNSLKPEDTAVYYCAKRRYYSTPRWGSSTYDYWGQGTQVTVSS | low polyreactivity
21 | QVQLVESGGGLVQAGGSLRLSCAASGRTFYNAMGWYRQAPGKERELVAAITTGGGTKYADSVKGRFTISRDNAKNTVYLQMNSLKPEDTAVYYCNTDEWYHFYHGAHKYDYWGQGTQVTVSS | low polyreactivity
22 | QVQLVESGGGLVQAGGSLRLSCAASGRTFYNNAMGWYRQAPGKERELVAVISRGGTTYYPDSVKGRFTISRDNAKNTVYLQMNSLKAEDTSVYYCAKQVPSGDSSSQMGSWGQGTQVTVSS | low polyreactivity

Row | Sequence | polyreactivity (PSR sort gate)
23 | QVQLVESGGGLVQAGGSLRLSCAASGRTFYNYAMGGYRQAPGKERELVAAISWSDGTTYYADSVKGRFTISRDNAKNTVYLQMNSLKPEDTAVYYCAAEFESSFALGFYYWGQGTQVTVSS | high polyreactivity
24 | QVQLVESGGGLVQAGGSLRLSCAASGRTFYPNVMGWYRQAPGKERELVAAITSGGSTYYADSVKGRFTISRDNAKNTVALEMNSQKPEDTAVYYCAVAYAGGGSRKYDYWGQGTQVTVSS | low polyreactivity
25 | QVQLVESGGGLVQAGGSLRLSCAASGRTFYPYAMGWSRQAPGKERELVAAISWNGGRTYYADSVKGRFTISRDNAKNTVYLQMNSLKPEDTAVYYCAADTAYYDFDYWGQGTQVTVSS | low polyreactivity
26 | QVQLVESGGGLVQAGGSLRLSCAASGRTFYPYAMGWYRQAPGKERELVATITWSGTTTYYADSVKGRFTISRDNAKNTVYLQMNSLKPEDTAVYYCAADVWEVVTPYGTIDDDYWGQGTQVTVSS | high polyreactivity
27 | QVQLVESGGGLVQAGGSLRLSCAASGRTFYPYAMGWYRQAPGTERELVAAISRSGGGTYYADSVKGRFTISRDNAKNTVYLQMNSLKPEDTAVYYCAAARYLSIYNYWGQGTQVTVSS | low polyreactivity
28 | QVQLVESGGGLVQAGGSLRLSCAASGRTFYPYVMGWYRQAPGKERELVARIRWSGSSTYYADSVKGRFTISRDNAKNTVYLQMNSLKPEDTAVYYCNARPSWYVFGSSVHSGMGYWGQGTQVTVSS | high polyreactivity
29 | QVQLVESGGGLVQAGGSLRLSCAASGRTFYPYVMGWYRQAPGKERELVATISWSGGSTYYADSVKGRFTISRDNAKNTVYLQMNSLKPEDTAVYYCAALWPYGYWGQGTQVTVSS | low polyreactivity
30 | QVQLVESGGGLVQAGGSLRLSCAASGRTFYPYVMRWYRQAPGKERELVAAITNRGGSTYYADSVKGRFTISRDNAKKTVYLQMNSLKPEDTAVYYCAKRQVGVGHYDHWGQGTQVTVSS | low polyreactivity
31 | QVQLVESGGGLVQAGGSLRLSCAASGRTFYQNAMGWYRQAPGKERELVAAISYRGASTYYADSVKGRFTISRDNAKNTVYLQMHSLKPEDTAVYYCAVAARTRARVLYGYDYWGQGTQVTVSS | low polyreactivity
32 | QVQLVESGGGLVQAGGSLRLSCAASGRTFYQYAMGWYRPAPGKERELVAAITTSGGSTYYADSVKGRFTNSRDNAKNTVYLQMNSLKPEDTAVYYCAAPYTGYRERGSYKSDYWGQGTQVTESS | low polyreactivity
33 | QVQLVESGGGLVQAGGSLRLSCAASGRTFYQYAMGWYRQAPGKERELVAAISRSGTSTYYADSVKGRFTISRDNAKNTVYLQMNSLKPEDTAVYYCYVLRYDYWGQGTQVTVSS | high polyreactivity
34 | QVQLVESGGGLVQAGGSLRLSCAASGRTFYQYAMGWYRQAPGKERELVAAITRRGGSTYYADSVKGRFTISRDNAKNTVYLQMNSLKPDDTAVYYCNAQYKKGFDYWGQGPQVTVSS | high polyreactivity
35 | QVQLVESGGGLVQAGGSLRLSCAASGRTFYRKAMGWYRQAPGKERELVAAITYGGGSTYYADSVKGRFTISRDNAKNTVYLQMNSLKPEDTAVYYCNALRNVRTGRTQVLSYYWGQGTQVTVSS | high polyreactivity
36 | QVQLVESGGGLVQAGGSLRLSCAASGRTFYRNAMGWYRQAPGKERELFATINSGGSTHYADSVKGRFTISRDNAKNTVYLQMTSLKPEDNAVYYCAARSQSYRGSLSYYWGQGTQVTVSS | high polyreactivity
37 | QVQLVESGGGLVQAGGSLRLSCAASGRTFYRNAMGWYRQAPGKERELVAAISQRGGRTYYADSVKGRFTISRDNAKNTVYLQMNSLKPEDTAVYYCAASPIYPVYRRHGYWGQGTQVTVSS | high polyreactivity
38 | QVQLVESGGGLVQAGGSLRLSCAASGRTFYRNAMGWYRQAPGKERELVAAISRGDSTYYADSVKGRFTNSRDNAKNTVYLQMNILIPEDTAVYYCAKRARRIGDVNMGSWGQGTQVTVSS | low polyreactivity
39 | QVQLVESGGGLVQAGGSLRLSCAASGRTFYRNPMGWYRQAPAKERELVAANSWSGGRTFYADSVKGRFTISRDNAKNTVYLHMNSMKPEDTAVYYCAKSYTTPGYYRYDYWGQGTQVTVSS | high polyreactivity
40 | QVQLVESGGGLVQAGGSLRLSCAASGRTFYRSAMGWYRQAPGKERELVAAISSSGGRTYYADSVKGRFTISRDYAKNTVYLQMNSLKPEDTAVYYCNAAPSWSTSFDSWGQGTQVTVSS | high polyreactivity
41 | QVQLVESGGGLVQAGGSLRLSCAASGRTFYRYAMGWYRQAPGKERELVAAISSGGSTNYADSVKGRFTISRDNAKNTVYLQMNSLKPEDTAVYYCAAETRLHRQDYDYWGQGTQVTVSS | low polyreactivity
42 | QVQLVESGGGLVQAGGSLRLSCAASGRTFYRYAMGWYRQAPGKERELVAAISTSGSTTYADSVKGRFTISRDNAKNTVYLQMISLKPEDTAVYYCNAVYYYRPDWRQSNLSQYGYWGQGTQVTVSS | high polyreactivity
43 | QVQLVESGGGLVQAGGSLRLSCAASGRTFYRYAMGWYRQAPGKERELVATISSSGRTYYADSVKGRFTISRDNAKNTVYLQMNSLKPEDTAVYYCRFTIKHGSWGQGTQVTVSS | high polyreactivity
